How the values were obtained:
[1] = molecular target: the molecule itself; test: SEC; HiLoad 16/600 Superdex 75pg, last step of purification, sample dialysed in buffer A (50 mM HEPES pH 7.5, 30 mM NaCl); profile not shown
[2] = molecular target: the molecule itself; test: crystal structure; X-ray, 2.55 A, space group P2(1)22(1), four homodimers (eight subunits) in the asymmetric unit; crystals from 2.0-2.2 M ammonium sulfate, 100 mM bicine pH 9.0, with 20 mM beta-mercaptoethanol, 20 C

Protein | stoichiometry N [1] | binding result [2]
His6-tag human thymidylate synthase (HT-hTS), wild type (enzyme, UniProt P04818 1-313, looked up, human thymidylate synthase (TS, EC 2.1.1.45); The non-cleavable N-terminal His6-tag comes from the pQE80L plasmid; also called wild-type hTS; human TS; not shown: His6, N-terminal, kept) MPVAGSELPRRPLPPAAQERDAEPRPPHGELQYLGQIQHILRCGVRKDDRTGTGTLSVFGMQARYSLRDEFPLLTTKRVFWKGVLEELLWFIKGSTNAKELSSKGVKIWDANGSRDFLDSLGFSTREEGDLGPVYGFQWRHFGAEYRDMESDYSGQGVDQLQRVIDTIKTNPDDRRIIMCAWNPRDLPLMALPPCHALCQFYVVNSELSCQLYQRSGDMGLGVPFNIASYALLTYMIAHITGLKPGDFIHTLGDAHIYLNHIEPLKIQLQREPRPFPKLRILRKVEKIDDFKAEDFQIEGYNPHPTIKMEMAV | 2 | 
His6-tag human thymidylate synthase variant Q62R (HT-hTS Q62R) (enzyme, UniProt P04818 1-313, looked up, Cys195 modified as S,S-(2-hydroxyethyl)thiocysteine (CME195) in the crystal, by reaction with beta-mercaptoethanol, human thymidylate synthase (TS, EC 2.1.1.45) with Gln62 replaced by arginine; plasmid pQE80L-hTS-Q62R made by site-directed mutagenesis of pQE80L-hTS; Non-cleavable N-terminal His6-tag (twelve residues belong to the tag); in the crystal the first twenty-five N-terminal residues and the tag are not traced; also called Q62R variant; not shown: His6, N-terminal, kept) MPVAGSELPRRPLPPAAQERDAEPRPPHGELQYLGQIQHILRCGVRKDDRTGTGTLSVFGMRARYSLRDEFPLLTTKRVFWKGVLEELLWFIKGSTNAKELSSKGVKIWDANGSRDFLDSLGFSTREEGDLGPVYGFQWRHFGAEYRDMESDYSGQGVDQLQRVIDTIKTNPDDRRIIMCAWNPRDLPLMALPPCHALCQFYVVNSELSCQLYQRSGDMGLGVPFNIASYALLTYMIAHITGLKPGDFIHTLGDAHIYLNHIEPLKIQLQREPRPFPKLRILRKVEKIDDFKAEDFQIEGYNPHPTIKMEMAV |  | binds
